According to the DeepSol protein solubility set:

Assay: soluble on expression in E. coli; label from the status in PepcDB or PDB records
For “MDENLRQLAESILTDLTQDAPIANTMLKAKVFASKKNDKDLLSWIEHELNGYEENLPKYRLLDAGVKVDIHRGFQEVLGYNYPMGMVKDEKVRERLLHLPIHGSISEVEELSTKSGEGTIHIDIPIEIWYHHMRHCINGDIQRAYQFATVASVKQIMVKIKSLLIDYFLKIDKGESLSFLSLIKKETPTMQIIAGIVNTGS”, the “soluble on expression in E. coli” value was “not soluble”. For “MDERRTAEERRERMLPETMPVCPVRGSVIYPTMVMPIDAGRPISIRAIDEALARDRVLLIVSQRDKEVETPRPSDLFEVGTACNILKMRKNPDGSVQVLVQAFARVRVREWLDLGDHLEARGEVLADEPGEPILVKALVREVKDKFQALLKEGKYLAPEVAQFILNLEDPSQLADYVAFHMDFRLEDKQKVLETANVAERLRAVLVLLEAELALIETQRRIQQQVKEEIDRNQREYFLREQMKAIQRELHGEEGEQEVEEFRRKLEALDLPPVVRQEAERELNRFARMHPDSAEASVIRTYLDWIVNLPWNTRTEDNLDLERAKEILERDHYGLEKVKDRVLEYLAVRKLKAERAKRGEIPPDEVNKGPILLFVGPPGVGKTSIAKSIAEALGRKYVRVSLGGVRDESDIRGHRRTYIGAMPGRIIQGLRQAGTKNPVFLLDEVDKLGISYQGDPAAALLEVLDPAQNKEFVDHYLGVPFDLSEVMFICTANFPQNIPAPLYDRMEPIEFTSYTEQEKLEIAKRYLLPRQLKENGLEPEQVVVTEAALTRLITHYTREAGVRQLEREIGALLRKAARRILEEGKKRVRITEKDLEAYLGPPRFLPETEAREPQVGVATGMYYTPVGGDIMFVEVSVMPGKGNLILTGQLGDVMKESARAALSYAKKNALRFGIPLEKFDKSDIHIHVPAGAIPKEGPSAGVALVSALVSALTEVPVRHDIAMTGEITLTGRVLPIGGVKEKVLGARRAGIREVILPKLNEPDLSDIPKPLRQNMTFHFVEHLDQVLDLALVGGLKALEERGRRPRSARKKKELVAHA”, the “soluble on expression in E. coli” value was “soluble”. For “MDESAALRAFQDALRTQRPEFGQFFLARLLGLDISYPDGQCLIVFEPQDFLFNPQGSLHGGIIATVMDISMGHLLNHVQGAGLTLEMKTQYLKAVHQGTVYCRGEFLQRGRSVSFLKSTLTDAQGEPLAMATSTWKALSPLEHHHHHH”, the “soluble on expression in E. coli” value was “soluble”. For “MDFNLNDEQELFVAGIRELMASENWEAYFAECDRDSVYPERFVKALADMGIDSLLIPEEHGGLDAGFVTLAAVWMELGRLGAPTYVLYQLPGGFNTFLREGTQEQIDKIMAFRGTGKQMWNSAITEPGAGSDVGSLKTTYTRRNGKIYLNGSKCFITSSAYTPYIVVMARDGASPDKPVYTEWFVDMSKPGIKVTKLEKLGLRMDSCCEITFDDVELDEKDMFGREGNGFNRVKEEFDHERFLVALTNYGTAMCAFEDAARYANQRVQFGEAIGRFQLIQEKFAHMAIKLNSMKNMLYEAAWKADNGTITSGDAAMCKYFCANAAFEVVDSAMQVLGGVGIAGNHRISRFWRDLRVDRVSGGSDEMQILTLGRAVLKQYR”, the “soluble on expression in E. coli” value was “soluble”. For “MDGAQPKTNFFERLIARLAREPDSAEDVLNLLRQAHEQEVFDADTLLRLEKVLDFSDLEVRDAMITRSRMNVLKENDSIERITAYVIDTAHSRFPVIGEDKDEVLGILHAKDLLKYMFNPEQFHLKSILRPAVFVPEGKSLTALLKEFREQRNHMAIVIDEYGGTSGLVTFEDIIEQIVGEIEDEFDEDDSADNIHAVSSERWRIHAATEIEDINTFFGTEYSSEEADTIGGLVIQELGHLPVRGEKVLIGGLQFTVARADNRRLHTLMATRVK”, the “soluble on expression in E. coli” value was “not soluble”. For “MDGSFVQHSVRVLQELNKQREKGQYCDATLDVGGLVFKAHWSVLACCSHFFQRIYGDGTGGSVVLPAGFAEIFGLLLDFFYTGHLALTSGNRDQVLLAAKELRVPEAVELCQSFQPQTSVGQAQSGLGQPASQDVKSHLKEPTDLDEEEVFKTLSLASVDQEPRDTEQPQLGTPAQSSTAFLCGKLTQALKPSPSEDKESEDCKEPPRPFEAGGAPLQGESNEWEVVVQVEDDRDGDYVSEPETVLTRRKSKVIRKPCAAEPALGAGSLTAEPTDSRKGAAVPVECPTCHKKFLSKYYLKVHNRKHTGEKPFECPKCGKCYFRKENLLEHEARNCMNRSEQVFTCSVCQETFRRRMELRLHMVSHTGEMPYKCSSCSQQFMQKKDLQSHMIKLHGAPKPHAVSASQGWGSGGSGTAQSCPHLDVLPLPVSPTCSAPLVPSASCLGRSYSCTRLLSIVEKSSLCVRNAGTGPRAATGCRCTSRPSTGMKGLMSVSSAAMPSPRRPTSTCTCARTPARSLSSATSVGRPSAPKFGQAQPHPHGREAFQL”, the “soluble on expression in E. coli” value was “soluble”. With “MDHAPERFDATPPAGEPDRPALGVLELTSIARGITVADAALKRAPSLLLMSRPVSSGKHLLMMRGQVAEVEESMIAAREIAGAGSGALLDELELPYAHEQLWRFLDAPVVADAWEEDTESVIIVETATVCAAIDSADAALKTAPVVLRDMRLAIGIAGKAFFTLTGELADVEAAAEVVRERCGARLLELACIARPVDELRGRLFF” the “soluble on expression in E. coli” value was “not soluble”. In the case of “MDHFIKLLPKLTPHLRKGDCGKMGVIGGSLEYTGAPYFAASSASRLGADLIHIFCDPDAAQVIKGYSPDLIVHPGMTANSIIPKLSRMDAIVIGPGLGRNPNIWPLMQELFEFVRNRDVPFVIDGDGLWFVSEHIEKFPRQMSATVLTPNIVEFSRLCKSALGEEDVLNVRNNSQLQHLAAELSRKMNVTIYLKGEVDLVVTPNGEVSKCSTESSLRRCGGQGDVTAGSLGLFLYWAKKNLGDDWTSAHHEAGIASSWLVRTAGRRAFEKHGRSMNTPLLLDEIPKLVRDVETREMKDTVHTDSSKH”, the “soluble on expression in E. coli” value is reported as “not soluble”. With “MDHHSKAKELLQQRDELDGKIKELMLVLETNNSTMDSPLLDAEGYPLNTIDVYAVRHARHDLICLRNDRAALTEKIVVEMENENKEVSGQTATSEEKPVHRTSNEPFVKISSVVELSPADIGGFRKDDLIIQYGNLHHGNFNDMQEVAQITKQSEDKIIRVTVIRENRPVRLEICPKKWSGPGLLGCNIVPISGANV” the “soluble on expression in E. coli” value was “not soluble”. With “MDIEIENHPLEPFLPANARLLMLGSFPPQKKRWSMDFYYPNLNNDMWRIVGLLFFNNKDYFLNETRKAFCRERIISFLNDKGIALFDTASAIRRLQDNASDKFLEVVQPTDISRLLGQLPECKAIVTTGQKATDTLRAQFEVEEPKVGDFSEFVFDGRPVRLYRMPSSSRAYPLALDKKAAAYRTMYQDLQMLNIELEHHHHHH” the “soluble on expression in E. coli” value was “soluble”. For “MDIGRAVRFLRKRQGWTQQQLADFSHTSKSNISNLENGNQGYSPAILEYLAKAFNCSVSQIFLLAENMDNEGNLLKDWQHMPIDVLFIQLPQEVQCQLKHLIFTLIDTKK”, the “soluble on expression in E. coli” value was “not soluble”. With “MDIKACYQNAKALLEGHFLLSSGFHSNYYLQSAKVLEDPKLAEQLALELAKQIQEAHLNIECVCSPAIGGILAGYELARALGVRFIFTERVDNTMALRRGFEVKKNEKILVCEDIITTGKSAMECAKVLEEKGAQIVAFGALANRGICKRAHSHLKAQEGACLPSHLPLFALEDFVFDMHKPSSCPLCATSVAIKPGSRGN” the “soluble on expression in E. coli” value was “not soluble”. In the case of “MDIKNWSVYNKLYVGGGISDDVQTNTSETYDKEKDCWTLDNGHLVPHNYIMYKCEPVKHRYPLEKTQYTNDFLKYLESFIGS”, the “soluble on expression in E. coli” value is reported as “not soluble”. For “MDINLEYSLHDTQFFWQALSIRYHHAQRLKQLQRELAGFEQIKKFTLLPEAFSMEAGLITPTLKQRCKMIYHKYAHEINAMYNNLEHHHHHH”, the “soluble on expression in E. coli” value was “not soluble”. With “MDIRQMNRTHLDHWRGLRKQLWPGHPDDAHLADGEEILQADHLASFIAMADGVAIGFADASIRHDYVNGCDSSPVVFLEGIFVLPSFRQRGVAKQLIAAVQRWGTNKGCREMASDTSPENTISQKVHQALGFEETERVIFYRKRC” the “soluble on expression in E. coli” value was “not soluble”. For “MDIRYFGTTPRYSEAVGANGLIFLSGMVPENGETAAEQTADVLAQIDRWLAECGSDKAHVLDAVIYLRDMGDYAEMNGVWDAWVAAGRTPARACVEARLARPEWRVEIKITAVKRDAATA”, the “soluble on expression in E. coli” value was “not soluble”. For “MDIVQLGPAELKAWMDEGRMFCLLDVRTDEETAVCSLPNALHIPMNLIPLRQNELPDDVPLVVYCHHGIRSLHTAMYLADAGFENLYNLQGGIDAWAAEIDGNMMRY”, the “soluble on expression in E. coli” value was “not soluble”. With “MDKMFKRTLLGAAVAMASTGAFAASETGAIGVLSDFNVQAYGVAAISAFYQEDSNGYDYENESRIGFRASKDMFDNVNVFMQIESGYVGEDGKGSTLGARDTFLGLQGDWGKVRFGRMLTPLYEIVDWPYSNPGLGRVFDWGGDVAGHYDRKGDIARYDSPAFGGLTFNISAGRGDVGTKSSNHFGAAAHYNAADIVTFHVGYENNSNFKYDYKTKDTAGKDVDNTFLTDATAYIVGFELPLPAGFGLAGAYKYTEGASKTVKGQEGEQGQYSLIGQYWNGPWGFKVGYAANLESEVNGVEQKDDDEVLSAQLMYVKNGFVPYIRVGQHDAYDSADKKGFVRVGLEYGF” the “soluble on expression in E. coli” value was “not soluble”. For “MDKNETRATIIRIGTDLISRQGFNATGIDAVLKEAGVPKGSFYYYFRSKEEFGLAVIDHFAERYDQRLDTFLNDEEVTPLNRIRNYLESALARLEQNQCSKGCLIGNLGQELADQHERFRGRLDEIFRSWKDRFAACLREAQRGGELAPELDAGVAAGFILSGLEGAILRTKVMKSPQPLRDFIEILFASVLRRQA”, the “soluble on expression in E. coli” value was “not soluble”. For “MDKTVFQQDLAPYVKYSLNKKKRWETGNDKNYLSEVQKRYRGMDMFVIDRVRLNSSPYFCFISRENFFHNYFLQFPIRQLHQLNADNSYSYVYANQTYGQSYKSLQPENRSPSKSKSAKKPELYQNAKVAYHIITPPKNYEKLQAPKFCPGSSDRNLTHRTLTHWRRVKRMRDALLSLRYEKFEVLDEEVDMVDDYLIFDQYDPPRKLLV”, the “soluble on expression in E. coli” value was “not soluble”. With “MDLFDLIFPPPPQSPSKLHPTQNHILPPEPLNRDFGDTRKNHKKAQPRRTTKAPSTSSPTIHDRQTPPRPTTPKSPTEKLLPIYHKFADGTEVVNPAAYAQRGFGWVKQNNTARVSWAKWAQSTKKCDDDIYGLKWIEERYPNWRDSNFRIRERRRSRSRSPQLSDNGSEDISIYLGRANSSSPNPTATGSETSYGSPTDAIYIPRNY” the “soluble on expression in E. coli” value was “not soluble”. With “MDLFKIEANYIDIFNKEIYPASIAIANGHIASIEKINATLDEYVLPGFIDAHIHIESSFLVPSNFAHLVVAHGTVATISDPHEIANVNGIDGINFMINNSKKTEFKFFFGAPSCVPALSQEFETSGYVLNDKDIDELMKLDDIYYLAEVMDFKGVINKDIEIINKINSALKRNKVVDGHAPGLSPNLTLKYASSGISTDHECLTIEDARYKLSLGMKILIREGSAAKNFESLHPLISECSKKYCDSLMFCFDDAHPNDILNGHINLIVARAIKHGHDFFDVLKIACINPVLHYKIPVGLLRIGDPADFIITKDIKTFKINKTYINGKLVFNDGISLIPLINEIPINNFNCSKKSISDFKFSTKNKMIPVIKCISNQIITHKTMIDSNLLAPDFQSNIAEDILKIAIINRYKDNSKISIGFIKNFGIRNGAIGSTVAHDSHNIILVGSNDEYLCKAANTIIQNKGGLCALNNEKTIIMELPISGLMSTLSAERVASQYIKLNDFCKNVLGSRLDDPLMTLSFMSLTVVPHLKINDKGLFDVDSFCFVDYLEHHHHHH” the “soluble on expression in E. coli” value was “not soluble”. For “MDLFPDEVYVFTPKGHIMELPKGATPVDFAYTVHSGVGNSCVAAKVNRRLVPLSIPLSNGQTVEIITAPGAHPNPAWLEHHHHHH”, the “soluble on expression in E. coli” value was “not soluble”. With “MDLFQAMRVYVKVVEAGSLTAAAQACSISTTMVGNHLRALEQRLGVSLLQRTTRRQRLTEFGTAYYERCLEVLGLVAESEQLAEQAQGDPSGTLRITAPLTFGSEVLAPALAGFSLRFPEVKLDLVLTNQRLDMIDNGFDIAIRLGNIPQSSPLIARLMQDYTLTICAAPSYLARHGTPAHPEDLGAHNCLAFSYPAGDEWRTAGTQWRMTGPEGEVLVDVDGSMVANTSAGLYQAACAGMGVVMLPDALVQRDLQEGRLVALLPGYHLPRRPMNLLYVQDRYRLPKVRSFVEYAMGLWGR” the “soluble on expression in E. coli” value was “not soluble”.
